Paper PMC10816834, “Role of the C-Terminal β Sandwich of Thermoanaerobacter tengcongensis Thermophilic Esterase in Hydrolysis of Long-Chain Acyl Substrates” (International Journal of Molecular Sciences, 2024)

Legend:
Conditions in all cases: 50 °C, 50 mM sodium phosphate pH 7.4 (also Tris-HCl pH 8.5), 5 μM enzyme, 1-20 mM substrate
[1] = system: T1, EstA3_Bb (naturally shorter B. brevis esterase); test: p-nitrophenol release at […] nm, Lineweaver-Burk; type: biochemical, Brevibacillus brevis
T1 construct: gene EstA3.bb; full-length natural enzyme lacking the C-terminal tail, 6xHis-tag (pET28a, plasmid pFEM170), codon-optimised synthetic gene, E. coli BL21(DE3) pLysS, Ni-NTA; calculated mass 35,243

[2] = substrate: CCCCCCCC(=O)Oc1ccc([N+](=O)[O-])cc1; test: purified protein; type: biochemical, Caldanaerobacter subterraneus
[3] = substrate: CCCC(=O)Oc1ccc([N+](=O)[O-])cc1; test: purified protein; type: biochemical, Caldanaerobacter subterraneus

`CCCC(=O)Oc1ccc([N+](=O)[O-])cc1` [pNPC4, p-nitrophenyl butyrate] gave a Km ([1]; table value, text b31 prints 0.53 mM) of 590 µM.

`CCCCCCCC(=O)Oc1ccc([N+](=O)[O-])cc1` [pNPC8, p-nitrophenyl caprylate] showed a Km [1] of 510 µM.

B1: EstA3_TtΔ (truncated T. tengcongensis esterase) (Caldanaerobacter subterraneus subsp. tengcongensis MB4) (protein)
chain: MNNPVVFLHGIFGSIFTPTPLGKIWSFGPAANIYAPFIEDLQKIGLVENKNLFVCYYEWWRKIPDAVDKLILAIEEAKAKTGSSKVDLVCHSMGGLLARSYLQSDKYQFDVDKLILLGTPNLGAANAYYGWEGGTVPPDDEDFVNMLFRGFLWIFSKIKGEKDAVTVIRKYIPSIKDLMPSKEYGSYLFMYPVRYEKILFKNIEYMKVINDFLNDLNEKADILYERVRSVYLFAGEGVYTNKFIQVEKSESEVVWPDGKPVGVIRDDKGDGTVLTKSALGINGEEIVLKSSHIGILKDSVSYLGEILG
notes: catalytic domain; 6xHis-tag (pET28a, plasmid pFEM103), E. coli BL21(DE3) pLysS, Ni-NTA; calculated mass 34,719
B1 gave a Km [2] of 560 µM and a Km [3] of 640 µM.

B2: EstA3_Tt (wild-type T. tengcongensis esterase EstA3, LipA3) (Caldanaerobacter subterraneus subsp. tengcongensis MB4) (protein)
chain: MNNPVVFLHGIFGSIFTPTPLGKIWSFGPAANIYAPFIEDLQKIGLVENKNLFVCYYEWWRKIPDAVDKLILAIEEAKAKTGSSKVDLVCHSMGGLLARSYLQSDKYQFDVDKLILLGTPNLGAANAYYGWEGGTVPPDDEDFVNMLFRGFLWIFSKIKGEKDAVTVIRKYIPSIKDLMPSKEYGSYLFMYPVRYEKILFKNIEYMKVINDFLNDLNEKADILYERVRSVYLFAGEGVYTNKFIQVEKSESEVVWPDGKPVGVIRDDKGDGTVLTKSALGINGEEIVLKSSHIGILKDSVSYLGEILGIREKPSISLLEKAISYLSIITDKKIVVLDRSKKIKTYDVFGKYNWHVCFEPEGVYKISIKEPGMSEFYIETNKKTVEKKFKSSRLSRGAEFTLEVDEEGNFKMRDG
notes: full length, 6xHis-tag (pET28a, plasmid pFEM45), codon-optimised synthetic gene, E. coli BL21(DE3) pLysS, Ni-NTA; calculated mass 47,078
B2 was tested, and the Km ([2]; listed as label shifted in table, assigned by text b31) was 490 µM and the Km [3] was 530 µM.
